Source: patent US20040138133A1 (Scripps Research, published 2004)
No end group written: not given here.

Molecular target: T1, Nck (adapter protein) from detergent extracts of human endothelial cells (human, UniProt P16333 2-377, limits assumed)
T1 construct: Endogenous protein pulled down from a cell lysate
Experiment: peptide-agarose pull-down from human endothelial cell lysate, anti-Nck western blot
Description: Affinity Chromatography. PRO or control peptides containing an N-terminal cysteine were dissolved in about 1 ml of coupling buffer (50 mM tris pH 8.0, 5 mM EDTA) and about 0.5 ml at about 3 mg/ml peptide added to about 2 ml of activated thiol-Sepharose (Pharmacia). Samples were incubated at a temperature of about 4° C. overnight with 1% β-mercaptoethanol added to block unreacted sites. Beads were rinsed and stored at a temperature of about 4° C. Endothelial cell cultures in 15 cm dishes were extracted in about 1.0 ml of cold (about 4° C.), lysis buffer (20 mM pH 7.4 sodium phosphate, 100 mM NaCl, 1% Triton X-100, 10 mM NaF, 2 mM EDTA, 1 mM sodium orthovanadate, 1 mM PMSF, 10 μg/ml each of leupeptin and aprotinin). The extracts were centrifuged for about 10 minutes at top speed in a microfuge and the supernatants were then removed. A 0.5 ml sample of each extract was incubated with about 10 μl of packed beads for about 1 hour, with rotation at a temperature of about 4° C. The beads were rinsed with lysis buffer (about 4×0.5 ml) and dissolved in SDS sample buffer (about 0.04 ml). Samples were analyzed by SDS PAGE on 10% gels and immunoblotting with anti-NCK (Santa Cruz) and HRP-protein A as secondary, and then were developed and detected using enhanced chemiluminescence (ECL kit, Amersham). […]

B1: control peptide (first two prolines replaced by A and G) lacking the Tat sequence, with a cysteine for coupling to agarose (peptide)
peptide: KAGAPPMRNTSTMC
modifications: also: C-terminal Cys coupled to thiol-Sepharose (agarose) beads
notes: also called mutant peptide
Q: Does B1 bind?
A: no binding
